Publication PMC9537531, “DNA-delivered antibody cocktail exhibits improved pharmacokinetics and confers prophylactic protection against SARS-CoV-2” (Nature Communications, 2022)
Where “and” joins values, the source holds several entries; their conditions need not be identical. Identical values can stand only once.

Target: T1, SARS-CoV-2 6P spike ectodomain peplomer (USA-WA1/2020; 6P stabilization) (SARS-CoV-2 USA-WA1/2020 (MN985325), stabilised)
T1 construct: also called stabilized spike trimer; spike peplomer
Assay: cryo-EM structure
Conditions: both partners purified

B1: 2196 dFab, DNA-encoded Fab obtained from serum-derived DMAb 2196 TM(m3) (Fab, V domains shown)
VH: QMQLVQSGPEVKKPGTSVKVSCKASGFTFMSSAVQWVRQARGQRLEWIGWIVIGSGNTNYAQKFQERVTITRDMSTSTAYMELSSLRSEDTAVYYCAAPYCSSISCNDGFDIWGQGTMVTVSS
VL: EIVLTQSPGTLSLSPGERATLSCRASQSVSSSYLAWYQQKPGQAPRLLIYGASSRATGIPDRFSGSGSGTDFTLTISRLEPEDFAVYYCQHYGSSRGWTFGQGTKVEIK
notes: also called dFab 2196; 2196DMAb Fab
stoichiometry N: 1 dFab per spike trimer and 2 dFabs per spike trimer and 1 copy per RBD (all three RBDs)

B2: 2130 dFab, DNA-encoded Fab obtained from serum-derived DMAb 2130 TM(m3) (Fab, V domains shown)
VH: EVQLVESGGGLVKPGGSLRLSCAASGFTFRDVWMSWVRQAPGKGLEWVGRIKSKIDGGTTDYAAPVKGRFTISRDDSKNTLYLQMNSLKTEDTAVYYCTTAGSYYYDTVGPGLPEGKFDYWGQGTLVTVSS
VL: not shown
notes: also called dFab 2130
stoichiometry N: 3 dFabs per spike trimer
